Data from US20240400703A1 (Genmab, published 2024).
“And” between values parts separate entries of the source, which are not always exact repeats. Equal values may be shown once.

How the values were obtained:
[1] = target: T1, human OX40 expressed on cells (human, UniProt P43489 29-277); test: flow cytometry, activated human CD4+ T cells, donor 1
T1 construct: also called CD134; TNFRSF4
T1 sequence: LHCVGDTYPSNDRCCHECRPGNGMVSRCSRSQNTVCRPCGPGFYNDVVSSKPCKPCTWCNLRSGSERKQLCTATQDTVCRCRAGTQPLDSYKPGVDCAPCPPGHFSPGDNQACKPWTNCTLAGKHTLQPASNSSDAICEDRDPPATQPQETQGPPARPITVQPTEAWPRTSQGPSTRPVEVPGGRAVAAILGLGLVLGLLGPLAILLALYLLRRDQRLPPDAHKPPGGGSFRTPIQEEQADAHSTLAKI

[2] = target: T1, human OX40 expressed on cells; test: flow cytometry, activated human CD4+ T cells, donor 2
Description: (§1) Healthy human donor PBMCs were purified essentially as described in Example 7. The cell concentration was adjusted to 2×10⁶ cells per mL (final concentration) in assay medium and plated in 6-well plates (Greiner, cat. no. 657160). PBMCs were stimulated with 0.3 μg/mL anti-CD3 ([…] Technologies, cat. no. 60011) and 0.5 μg/mL anti-CD28 antibodies (BioLegend, cat. no. 302934) and cultured for two days at 37° C., 5% CO₂. Next, the PBMCs were harvested, counted and brought to a concentration of 2×10⁶ cells per mL in FACS buffer 1 (DPBS with 2% heat-inactivated FBS and 2 mM ethylenediaminetetraacetic acid [EDTA]). […] After 60 min at RT, the cells were prepared for flow cytometric analyses. To this end, the cells were washed twice with 150 μL FACS buffer 1 and 30 μL/well cell-surface antibody mix (Table 9) in FACS buffer 1 containing antibody against human Fcγ antibody (Table 9) and fixable viability dye eFluor780 (1:1,500) was added. The staining procedures were carried out at 4° C. for 15-20 min protected from light. Stained cells were washed twice with 120-150 μL FACS buffer 1 (5 min, 460×g, RT) and resuspended in 60-100 μL FACS buffer 1 for direct flow cytometric analyses. Flow cytometric data were acquired on a FACSymphony A3 and analyzed with FlowJo software.

[3] = target: T1, human OX40 expressed on cells; test: flow cytometry, activated human CD4+ T cells, donor 3
Description: as §1

[4] = target: T1, human OX40 expressed on cells; test: flow cytometry, activated human CD8+ T cells, donor 2
Description: as §1

[5] = target: T1, human OX40 expressed on cells; test: flow cytometry, activated human CD4+ T cells, mean of 3 donors
Description: as §1

[6] = target: T1, human OX40 expressed on cells; test: flow cytometry, activated human CD8+ T cells, mean of 3 donors
Description: as §1

[7] = target: T1, human OX40 expressed on cells; test: flow cytometry, activated human CD4+ T cells, without sOX40L, n=3
[8] = target: T1, human OX40 expressed on cells; test: flow cytometry, OX40-transfected HEK293F cells, gMFI (PE)
Description: (§2) Transfected cells were seeded in 96-well plates (30,000 cells/well; ThermoFisher, cat. no. 163320) for sequential incubations, with washing steps in between using fluorescence-activated cell sorting (FACS) buffer 1 (phosphate buffered saline [PBS; Lonza, cat. no. BE17-517Q] supplemented with 0.1% bovine serum albumin [BSA; Roche, cat. no. 10735086001] and 0.02% sodium azide [NaN₃; Bio-World, cat. no. 41920044-3]) supplemented with 2 mM ethylenediaminetetraacetic acid (EDTA; Sigma-Aldrich, cat. no. 03690). […] Cells were then washed using EDTA-supplemented FACS buffer 1, resuspended in a 30 μL solution of viability marker ToPro-3 (Invitrogen, cat. no. T3605, diluted 1:10,000) in EDTA-supplemented FACS buffer 1, and subsequently analyzed on an iQue® 3 flow cytometer (Satorius). Data were analyzed using FlowJo software and were visualized using GraphPad Prism.

[9] = target: T2, cynomolgus monkey OX40 expressed on HEK293F cells (cynomolgus monkey (Macaca fascicularis), UniProt P43489 29-277 (human entry)); test: as above
T2 construct: full-length entry
T2 chain: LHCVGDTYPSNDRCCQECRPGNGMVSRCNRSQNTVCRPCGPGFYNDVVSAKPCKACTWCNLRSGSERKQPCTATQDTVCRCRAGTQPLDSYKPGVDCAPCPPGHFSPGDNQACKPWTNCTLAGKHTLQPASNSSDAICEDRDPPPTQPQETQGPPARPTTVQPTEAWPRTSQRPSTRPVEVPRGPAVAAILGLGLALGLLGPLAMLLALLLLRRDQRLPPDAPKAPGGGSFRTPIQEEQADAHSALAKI
Description: as §2

[10] = target: T1, human OX40 expressed on cells; test: flow cytometry, activated human CD4+ T cells, mean of 3 donors; CD4+ T cells
[11] = target: T3, C1q (from normal human serum) (human, UniProt P02745 23-245; P02746 28-253; P02747 29-245); test: flow cytometry, C1q from 20 % normal human serum on antibody-opsonised activated CD4+ T cells, FITC anti-C1q
T3 construct: also called complement factor C1q
T3 sequence (P02745 23-245 limits assumed, chain 1 of 3): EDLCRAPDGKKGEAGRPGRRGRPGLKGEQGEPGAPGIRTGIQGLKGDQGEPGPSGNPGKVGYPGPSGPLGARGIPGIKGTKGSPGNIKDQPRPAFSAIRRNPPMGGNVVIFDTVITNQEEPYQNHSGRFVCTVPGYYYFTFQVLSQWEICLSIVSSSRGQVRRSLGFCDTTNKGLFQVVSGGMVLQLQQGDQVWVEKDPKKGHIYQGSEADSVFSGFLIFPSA
T3 sequence (P02746 28-253 limits assumed, chain 2 of 3): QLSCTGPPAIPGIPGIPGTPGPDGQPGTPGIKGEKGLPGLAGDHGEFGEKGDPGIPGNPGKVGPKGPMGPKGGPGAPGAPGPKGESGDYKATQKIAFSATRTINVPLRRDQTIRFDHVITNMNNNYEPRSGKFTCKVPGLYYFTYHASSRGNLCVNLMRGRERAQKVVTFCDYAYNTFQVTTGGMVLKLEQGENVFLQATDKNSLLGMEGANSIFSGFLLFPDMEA
T3 sequence (P02747 29-245 limits assumed, chain 3 of 3): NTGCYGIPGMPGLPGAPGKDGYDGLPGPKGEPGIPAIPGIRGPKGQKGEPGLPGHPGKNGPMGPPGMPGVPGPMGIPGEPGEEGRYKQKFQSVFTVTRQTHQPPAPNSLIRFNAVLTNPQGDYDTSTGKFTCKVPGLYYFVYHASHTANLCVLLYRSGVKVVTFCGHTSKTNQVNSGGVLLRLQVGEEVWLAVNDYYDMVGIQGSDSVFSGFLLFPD
Description: Next, cells were washed twice with cold FACS buffer, pelleted, and resuspended in 80 μL FACS buffer supplemented with viability marker TO-PRO™-3 Iodide (Invitrogen, cat. no. T3605; diluted 1:10,000). […] Binding curves were analyzed using nonlinear regression analysis (sigmoidal dose-response with variable slope) using GraphPad Prism software. Binding of OX40 antibodies to the activated T cells was assessed after the incubation step with serial dilutions of antibodies. […] Next, cells were washed twice with cold FACS buffer, pelleted, and resuspended in 80 μL FACS buffer supplemented with viability marker TO-PRO-3 Iodide (diluted 1:10,000). Antibody binding was analyzed by flow cytometry on a BD FACSCelesta Cell Analyzer. Binding curves were analyzed using nonlinear regression analysis (sigmoidal dose-response with variable slope) using GraphPad Prism software.

EC50 [1]: 0.0273 µg/mL | EC50 [2]: 0.0167 µg/mL | EC50 [3]: 0.0187 µg/mL | EC50 [4]: 0.0163 µg/mL | EC50 [5]: 0.0209 µg/mL | EC50 [6]: 0.0236 µg/mL | EC50 [7]: 0.019 µg/mL and 0.13 nM | EC50 (read off the curve) [8]: ~0.05 µg/mL | EC50 (read off the curve) [9]: ~0.05 µg/mL | EC50 [10]: 0.14 nM | binding result [11]: no binding (tested: 30 µg/mL antibody)
B1: IgG1-CD134-003-HC6LC2-P329R-E345R (antibody)
heavy: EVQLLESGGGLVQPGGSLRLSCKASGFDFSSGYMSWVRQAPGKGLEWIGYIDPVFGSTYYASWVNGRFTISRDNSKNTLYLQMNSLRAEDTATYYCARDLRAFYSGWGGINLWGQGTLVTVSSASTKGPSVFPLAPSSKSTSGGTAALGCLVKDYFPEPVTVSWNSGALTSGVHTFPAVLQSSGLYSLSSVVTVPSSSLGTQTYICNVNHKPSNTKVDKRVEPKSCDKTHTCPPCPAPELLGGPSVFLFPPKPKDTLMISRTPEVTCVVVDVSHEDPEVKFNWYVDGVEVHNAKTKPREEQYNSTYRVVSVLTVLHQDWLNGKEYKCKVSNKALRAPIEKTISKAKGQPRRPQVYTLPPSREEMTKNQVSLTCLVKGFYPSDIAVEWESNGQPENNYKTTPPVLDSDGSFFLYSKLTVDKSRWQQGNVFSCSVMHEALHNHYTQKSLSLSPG
light: AAVLTQSPSSLSASVGDRVTITCQSSQIVVNNNFLSWYQQKPGKAPKLLIYDASNLASGVPDRFSGSGSGTDFTFTISSLQPEDIATYYCLGGYDDDAENAFGGGTKVEIKRTVAAPSVFIFPPSDEQLKSGTASVVCLLNNFYPREAKVQWKVDNALQSGNSQESVTEQDSKDSTYSLSSTLTLSKADYEKHKVYACEVTHQGLSSPVTKSFNRGEC
notes: humanized; human IgG1 with P329R and E345R (Eu numbering), kappa; also called IgG1-CD134-003-HC6LC2-RR
